# Test results from IntAct's records for PubMed 12601044.
# B1: Gamma-crystallin C (Homo sapiens), P07315 (parent)
# chain: MGKITFYEDRAFQGRSYETTTDCPNLQPYFSRCNSIRVESGCWMLYERPNYQGQQYLLRRGEYPDYQQWMGLSDSIRSCCLIPQTVSHRLRLYEREDHKGLMMELSEDCPSIQDRFHLSEIRSLHVLEGCWVLYELPNYRGRQYLLRPQEYRRCQDWGAMDAKAGSLRRVVDLY
# partner: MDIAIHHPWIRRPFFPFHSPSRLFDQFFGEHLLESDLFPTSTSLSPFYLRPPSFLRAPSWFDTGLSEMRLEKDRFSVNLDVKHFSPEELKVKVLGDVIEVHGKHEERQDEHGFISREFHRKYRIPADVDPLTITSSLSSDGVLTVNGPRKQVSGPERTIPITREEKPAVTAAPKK
# B2: Gamma-crystallin C (Homo sapiens), P07315 (parent)
# chain: B1 chain
# partner: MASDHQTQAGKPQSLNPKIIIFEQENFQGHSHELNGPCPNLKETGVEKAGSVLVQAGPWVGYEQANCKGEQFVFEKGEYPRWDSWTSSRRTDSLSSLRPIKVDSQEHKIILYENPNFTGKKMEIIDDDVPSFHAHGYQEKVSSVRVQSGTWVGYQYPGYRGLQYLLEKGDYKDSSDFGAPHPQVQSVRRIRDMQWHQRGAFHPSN
# B3: Alpha-crystallin A chain (Homo sapiens), P02489 (parent)
# chain: MDVTIQHPWFKRTLGPFYPSRLFDQFFGEGLFEYDLLPFLSSTISPYYRQSLFRTVLDSGISEVRSDRDKFVIFLDVKHFSPEDLTVKVQDDFVEIHGKHNERQDDHGYISREFHRRYRLPSNVDQSALSCSLSADGMLTFCGPKIQTGLDATHAERAIPVSREEKPTSAPSS
# partner: B1 partner
# B4: Alpha-crystallin A chain (Homo sapiens), P02489 (parent)
# chain: B3 chain
# partner: B2 partner
# B5: Alpha-crystallin A chain (Homo sapiens), P02489 (parent)
# chain: B3 chain
# B6: Alpha-crystallin B chain (Homo sapiens), P02511 (parent)
# chain: B1 partner
# partner: B3 chain
# B7: Alpha-crystallin B chain (Homo sapiens), P02511 (parent)
# chain: B1 partner
# partner: B2 partner
# Variants of: B1
# Settings: with cryab_human CRYAB
row,Variant,effect of a mutation on the interaction
1,T5P,disrupting interaction

# Variants of: B2
# Settings: with crbb2_human CRYBB2, P43320
row,Variant,effect of a mutation on the interaction
1,T5P,disrupting interaction

# Variants of: B3
# Settings: with cryab_human CRYAB
row,Variant,effect of a mutation on the interaction
1,R116C,increasing interaction

# Variants of: B4
# Settings: with crbb2_human CRYBB2, P43320
row,Variant,effect of a mutation on the interaction
1,R116C,disrupting interaction

# Variants of: B5
# Settings: with crgc_human CRYGC
row,Variant,effect of a mutation on the interaction
1,R116C,disrupting interaction

# Variants of: B6
# Settings: with cryaa_human CRYAA
row,Variant,effect of a mutation on the interaction
1,R120G,decreasing interaction

# Variants of: B7
# Settings: with crbb2_human CRYBB2, P43320
row,Variant,effect of a mutation on the interaction
1,R120G,increasing interaction
